From US20240117018A1

What was measured:
Experiment in all cases: cell-based or functional assay
[1] = biological target: RHPA4259.7 Env pseudovirus (HIV-1)
[2] = biological target: ZM197M.PB7 Env pseudovirus (HIV-1)
[3] = biological target: CNE19 Env pseudovirus (HIV-1)
[4] = biological target: CNE21 Env pseudovirus (HIV-1)

Binder	IC50 [1] [µg/mL]	IC80 [1] [µg/mL]	MPI [1]	IC50 [2] [µg/mL]	IC80 [2] [µg/mL]	MPI [2]	IC50 [3] [µg/mL]	IC80 [3] [µg/mL]	MPI [3]	IC50 [4] [µg/mL]	IC80 [4] [µg/mL]	MPI [4]
N49P23 (antibody, V domains shown) VH: QVRLVQSGAGARKTGASMKLSCSTSGYTFTTHHGHFINWVRQARGQGLEWMGWMNPMTGQMNIEGKFQGRVTLTRDIYSDTAYMEMTRLTTGDTGTYYCARGDFGQNYPFHYWGQGSLVIVSS VL: LSALTQPASVSGSPGQSVTISCSGTNRYLVSWYQQHPDKAPKLIIYDDNKRPSGISDRFSASRPDDTASLTISGLQTGDEATYWCASYERFGGGTRLTVLS	0.01	0.04	100	0.1	0.385	100	> 50	> 50	40	> 50	> 50	0
N49P22 (antibody, V domains shown) V domain 1: HIQLLQSGPQVKKSGDTVRISCETSGYNFVDSRIHWVRQTPEKRLRWMGWINPLQGGVNYAPEFQGRIRMTRDTFIDTVYVDLSGLTPADTAYYYCARGIDGKSYPFHFWGHGTRVTVFS V domain 2: RFALTQPASVSGSPGQTITITCAGGSVSWFHFPPGKTPRLIIYESSKRPSGVSPRFSGSQSGSTASLIISGLQSDDEGTYFCSILEFFGRGTLVTVLS	0.637	5.6	92	2.58	25.1	84	0.873	8.19	92	> 50	> 50	0
